Assay results from PMC2715020, “Identification, functional characterization and developmental regulation of sesquiterpene synthases from sunflower capitate glandular trichomes” (BMC Plant Biology, 2009).

T1: HaCS (HaTPS2) (Helianthus annuus, UniProt Q4U3F6)
T1 sequence (Q4U3F6 1-555): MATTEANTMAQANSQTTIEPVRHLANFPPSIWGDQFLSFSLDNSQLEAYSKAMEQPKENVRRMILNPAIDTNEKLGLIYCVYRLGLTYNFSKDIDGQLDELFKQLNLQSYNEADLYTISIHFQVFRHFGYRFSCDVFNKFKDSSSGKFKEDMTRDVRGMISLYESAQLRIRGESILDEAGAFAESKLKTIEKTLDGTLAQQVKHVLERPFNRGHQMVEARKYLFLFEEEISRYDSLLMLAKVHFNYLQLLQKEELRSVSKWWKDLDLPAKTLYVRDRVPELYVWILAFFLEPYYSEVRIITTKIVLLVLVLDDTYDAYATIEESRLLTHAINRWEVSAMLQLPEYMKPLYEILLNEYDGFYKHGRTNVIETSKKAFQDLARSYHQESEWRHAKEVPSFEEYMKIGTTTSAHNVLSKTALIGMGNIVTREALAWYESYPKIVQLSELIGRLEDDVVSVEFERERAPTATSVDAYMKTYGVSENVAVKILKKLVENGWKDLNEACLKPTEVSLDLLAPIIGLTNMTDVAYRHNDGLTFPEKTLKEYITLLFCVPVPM

B1: HaGAS2 (HaTPS1b; native, thioredoxin removed) (Helianthus annuus) (protein)
chain: MAAVGASATLLTNTKSAEEPVRPVANFPPSVWGDLFLSFSLDNSMMEEYAEAMEEPKGQVRKLILDPTMDSNKKLSLIYTVHRLGLTYMFFKEIEGQLDRLFKEFNLEDYVEVDLYTISTNFQAFRHLGYKLSCDVFNKFKNYDSNTFKESITSDVRGMLGLYESAQLRLKGEKILDEASAFTETKLKSLVKTLEGSLAQQVKQSLKRPFHQGMPMVEARLYFSNYQEECSRHDSLLKLAKLHFNYLQLQQKEELRIVSQWWKDMRFQETTPYIRDRVPEIYLWILGLYFEPRYSLARIIATKITLFLVVLDDTYDAYATIEEVRLLTDAINRWDIGAMSQIPEYIRPFYKILLDEYAELEKQLAKEGRANSVIASKEAFQDIARGYLEEAEWTNSGYVASFPEYMKNGLITSAYNVISKSALVGMGEIVSEDALAWYESHPQILQASELISRLQDDVMTYQFERERGQSATGVDAYIKTYGVSEKEAIDELKKMIENAWKEINEGCLKPREVSMDLLAPILNLARMIDVVYRYDDGFTFPGKTLKEYITLLFVGSSPM
notes: full length, 559 residues; expressed in E. coli from pET-32 EK/LIC, thioredoxin part removed by enterokinase
B2: HaGAS1 (HaTPS1a; native, thioredoxin removed) (Helianthus annuus) (protein)
chain: MAAVGASATPLTNTKSTAEPVRPVANFPPSVWGDLFLSFSLDKSIMEEYAEAMEEPKEQVRRLILDPTMDSNKKLSLIYTVHRLGLTYMFLKEIEAQLDRLFKEFNLEDYVELDLYTISINFQAFRHLGYKLPCDVFNKFKNDDSTTFKESITGDVRGMLGLYESAQLRLKGENILDEASAFAETKLKSLVNTLEGSLAQQVKQSLRRPFHQGMPMVEARLYFSNYQEECSAHDSILKLAKLHFNYLQLQQKEELRIVSQWWKDMRFQETTPYIRDRVPEIYLWILGLYFEPRYSLARIIATKITLFLVVLDDTYDAYATIEEIRLLTDAINRWDISAMNQIPEYIRPFYKILLDEYAELEKQLAKEGRANSVIASKEAFQDIARGYLEEAEWTNSGYVASFPEYMKNGLITSAYNVISKSALVGMGEIVSEDALVWYESHPQILQASELISRLQDDVMTYQFERERGQSATGVDSYIKTYGVSEKVAIDELKKMIENAWKEINEGCLKPREVSMDLLAPILNLARMIDVVYRYDDGFTFPGKTLKEYITLLFVGSSPM
notes: expressed in E. coli from pET-32 EK/LIC, thioredoxin part removed by enterokinase
B3: thioredoxin-HaGAS1 fusion protein (Helianthus annuus) (protein)
chain: MAAVGASATPLTNTKSTAEPVRPVANFPPSVWGDLFLSFSLDKSIMEEYAEAMEEPKEQVRRLILDPTMDSNKKLSLIYTVHRLGLTYMFLKEIEAQLDRLFKEFNLEDYVELDLYTISINFQAFRHLGYKLPCDVFNKFKNDDSTTFKESITGDVRGMLGLYESAQLRLKGENILDEASAFAETKLKSLVNTLEGSLAQQVKQSLRRPFHQGMPMVEARLYFSNYQEECSAHDSILKLAKLHFNYLQLQQKEELRIVSQWWKDMRFQETTPYIRDRVPEIYLWILGLYFEPRYSLARIIATKITLFLVVLDDTYDAYATIEEIRLLTDAINRWDISAMNQIPEYIRPFYKILLDEYAELEKQLAKEGRANSVIASKEAFQDIARGYLEEAEWTNSGYVASFPEYMKNGLITSAYNVISKSALVGMGEIVSEDALVWYESHPQILQASELISRLQDDVMTYQFERERGQSATGVDSYIKTYGVSEKVAIDELKKMIENAWKEINEGCLKPREVSMDLLAPILNLARMIDVVYRYDDGFTFPGKTLKEYITLLFVGSSPM
notes: full length (559 residues) with uncleaved N-terminal thioredoxin and 6x-His tag (pET-32 EK/LIC), E. coli, Ni-NTA purified

Key:
[1] = target: T1, HaCS (HaTPS2); assay: GC-MS of dodecane overlay, expression in S. cerevisiae EPY300; type: cell-based; design: gene CS; settings: FDP-overproducing yeast; HaCS and thioredoxin-HaCS
[2] = target: T1, HaCS (HaTPS2); assay: GC-MS of products after incubation with FDP; type: biochemical; design: gene CS; N-terminal thioredoxin fusion (E. coli, Ni-NTA; also S. cerevisiae EPY300), and unfused in yeast; settings: thioredoxin fusion, 50 μM FDP, MgCl2 and MnCl2, pH 7.0, 30°C
[3] = substrate: CC(C)=CCC/C(C)=C/CC/C(C)=C/CO[P@@](=O)(O)OP(=O)(O)O; assay: purified protein; type: biochemical, Helianthus annuus; settings: 15 mM MOPSO, 10 mM MgCl2, 1 mM MnCl2, pH 7.0 (assay buffer), 30°C, FPP 0.125 to 30 μM

Molecule | Km [3] [µM] | further results
CC1=C[C@@H]2C(=C(C)CC[C@H]2C(C)C)CC1 [δ-cadinene] | – | GC-MS of dodecane overlay, expression in S. cerevisiae EPY300 [1]: One of the two main products was identified as δ-cadinene
CC(C)=CCC/C(C)=C/CC/C(C)=C/COP(=O)(O)OP(=O)(O)O [FPP] | – | GC-MS of products after incubation with FDP [2]: in vitro enzyme assay products with substrate FDP showed the presence of the parental mass
B1 | 0.74 | –
B2 | 0.82 | –
B3 | 1.06 | –
